We go through one protein from paper PMC8828063, “High-resolution mapping of metal ions reveals principles of surface layer assembly in Caulobacter crescentus cells” (Structure(London, England:1993), 2022).

Broadly, the stoichiometry N is the number of molecules, sites or subunits per partner or assembly.

This series concerns the molecule itself. Kind of series: crystal structure; RsaA 30 mg/mL with 5 mM CaCl2; 0.07 M KSCN, 24% (w/v) PEG 8000, 0.075 M TAPS/NaOH pH 8.5, 19°C; stacked S-layer sheets in three-dimensional crystals; long-wavelength anomalous diffraction, molecular replacement with PDB 5N8P.

B1: RsaA, S-layer protein of Caulobacter crescentus (wild type, full length) (natural protein, UniProt A0A0H3C8J1 1-1026, looked up)
chain: MAYTTAQLVTAYTNANLGKAPDAATTLTLDAYATQTQTGGLSDAAALTNTLKLVNSTTAVAIQTYQFFTGVAPSAAGLDFLVDSTTNTNDLNDAYYSKFAQENRFINFSINLATGAGAGATAFAAAYTGVSYAQTVATAYDKIIGNAVATAAGVDVAAAVAFLSRQANIDYLTAFVRANTPFTAAADIDLAVKAALIGTILNAATVSGIGGYATATAAMINDLSDGALSTDNAAGVNLFTAYPSSGVSGSTLSLTTGTDTLTGTANNDTFVAGEVAGAATLTVGDTLSGGAGTDVLNWVQAAAVTALPTGVTISGIETMNVTSGAAITLNTSSGVTGLTALNTNTSGAAQTVTAGAGQNLTATTAAQAANNVAVDGGANVTVASTGVTSGTTTVGANSAASGTVSVSVANSSTTTTGAIAVTGGTAVTVAQTAGNAVNTTLTQADVTVTGNSSTTAVTVTQTAAATAGATVAGRVNGAVTITDSAAASATTAGKIATVTLGSFGAATIDSSALTTVNLSGTGTSLGIGRGALTATPTANTLTLNVNGLTTTGAITDSEAAADDGFTTINIAGSTASSTIASLVAADATTLNISGDARVTITSHTAAALTGITVTNSVGATLGAELATGLVFTGGAGADSILLGATTKAIVMGAGDDTVTVSSATLGAGGSVNGGDGTDVLVANVNGSSFSADPAFGGFETLRVAGAAAQGSHNANGFTALQLGATAGATTFTNVAVNVGLTVLAAPTGTTTVTLANATGTSDVFNLTLSSSAALAAGTVALAGVETVNIAATDTNTTAHVDTLTLQATSAKSIVVTGNAGLNLTNTGNTAVTSFDASAVTGTGSAVTFVSANTTVGEVVTIRGGAGADSLTGSATANDTIIGGAGADTLVYTGGTDTFTGGTGADIFDINAIGTSTAFVTITDAAVGDKLDLVGISTNGAIADGAFGAAVTLGAAATLAQYLDAAAAGDGSGTSVAKWFQFGGDTYVVVDSSAGATFVSGADAVIKLTGLVTLTTSAFATEVLTLA
notes: RsaA, S-layer protein of Caulobacter crescentus CB15N (NA1000), 1,026 amino acid residues; RsaANTD is residues 1-250 and RsaACTD residues 251-1,026; Full-length protein went into crystallisation; also called SLP; wild-type RsaA; source: purified from C. crescentus CB15N (NA1000) cells by low pH exposure (HiTrap SP flow-through, HiTrap Q)
For B1, the “stoichiometry N” value stood at 6.
